Results as given in paper PMC3826083.

Tests used:
mCherry-R125I = assay: fluorescence polarisation
mCherry-R125I/T127V = assay: fluorescence polarisation

Substance | Kd (mCherry-R125I) | Kd (mCherry-R125I/T127V)
mCherry-R125I | 35 µM | –
mCherry-R125I/T127V | – | 0.091 µM
